{
  "source": "paper PMC3777628",
  "about": "(Virology, 2013)",
  "proteins": {"B1": {"name": "MBP-Agno (28–71) (domain or fragment)", "chain": "ILIFLLEFLLDFCTGEDSVDGKKRQRHSGLTEQTYSALPEPKAT"}, "B2": {"name": "MBP-Agno (25–71) (domain or fragment)", "chain": "AQRILIFLLEFLLDFCTGEDSVDGKKRQRHSGLTEQTYSALPEPKAT"}, "B3": {"name": "MBP-Agno Ala(34–36) (natural protein)", "chain": "MVLRQLSRKASVKVSKTWSGTKKRAQRILIFLLAAALDFCTGEDSVDGKKRQRHSGLTEQTYSALPEPKAT"}, "B4": {"name": "MBP-Agno (17–71) (domain or fragment)", "chain": "TWSGTKKRAQRILIFLLEFLLDFCTGEDSVDGKKRQRHSGLTEQTYSALPEPKAT"}},
  "data": [
    {"biological_target": "the molecule itself", "experiment": "SDS-PAGE of SDS-resistant dimers and oligomers", "values": [
      {"protein": "B1", "binding result": "binds"},
      {"protein": "B2", "binding result": "binds"},
      {"protein": "B3", "binding result": "binds"},
      {"protein": "B4", "binding result": "binds"}
    ]}
  ]
}
